The test addresses ACE2 receptor on Vero E6 cells (African green monkey (endogenous in Vero E6)). Nature of the test: flow cytometry on cells; HIS-tagged S protein incubated with 1.5 × 10^5 Vero E6 cells (ACE2+), 37°C for 1 hour, in 1% BSA in PBS with 0.02% sodium azide; detected with FITC-labeled anti-HIS Ab.

“recombinant SARS-CoV-2 S protein, fused with a HIS tag at the C terminus (from UniProt P0DTC2) (natural protein)” came in with a concentration at binding saturation of 200 nM.

These data come from article PMC7875332.
